Data published in US20090246189A1 (Biogen, published 2009).

Target: T1, endogenous EGFR in mouse ventral midbrain (VM) tissue (mouse, UniProt Q01279 25-1210)
T1 construct: Native protein in a tissue extract
Assay: co-immunoprecipitation from mouse ventral midbrain extracts, Western blot
Description: COS-7 or HEK 293 cells (100 mm dishes) were transfected with Sp35, EGFR and Sp35/EGFR. The cells were harvested after 48 hours and lysed in 1 ml lysis buffer (50 mM HEPES, pH 7.5, 150 mM NaCl, 1.5 mM MgCl₂, 1 mM EDTA, 1% Triton x-100, 10% glycerol) or RIPA buffer (50 mM TRIS, pH 7.2, 1% Triton X-100, 0.5% sodium deoxycholate, 0.1% SDS, 150 mM NaCl, 10 mM MgCl₂, 5% glycerol) for 30 minutes at 4° C. After centrifugation at 14,000×g for 15 minutes, the supernatants were incubated with Protein A/G-Sepharose beads (Santa Cruz Biotechnology) at 4° C. for 1 hour, and then 200 μl of the precleared lystates were incubated with either anti-EGFR (Santa Cruz Biotechnology) at 4° C. for 1 hour, anti-Sp35 antibody (Biogen Idec, described in U.S. Provisional Patent Application No. 60/697,336, which is incorporated by reference herein in its entirety) followed by treatment with Protein A/G-Sepharose beads. The beads were washed 3 times with lysis buffer, boiled in Laemmeli sample buffer, subjected to 4-20% SDS-PAGE, and analyzed by Western blotting with anti-EGFR antibody or anti-Sp35 antibody. The EGFR and Sp35 antibodies were visualized using anti-rabbit IgG-HRP.
Sp35 KO or WT VMs were lysed in RIPA buffer and pre-cleared by Protein A/G plus-Sepharose beads as described above. […]

B1: endogenous Sp35 (LINGO-1) in mouse ventral midbrain (VM) tissue (receptor, UniProt Q9D1T0 36-614, looked up)
chain: CPPRCECSAQDRAVLCHRKRFVAVPEGIPTETRLLDLGKNRIKTLNQDEFASFPHLEELELNENIVSAVEPGAFNNLFNLRTLGLRSNRLKLIPLGVFTGLSNLTKLDISENKIVILLDYMFQDLYNLKSLEVGDNDLVYISHRAFSGLNSLEQLTLEKCNLTSIPTEALSHLHGLIVLRLRHLNINAIRDYSFKRLYRLKVLEISHWPYLDTMTPNCLYGLNLTSLSITHCNLTAVPYLAVRHLVYLRFLNLSYNPIGTIEGSMLHELLRLQEIQLVGGQLAVVEPYAFRGLNYLRVLNVSGNQLTTLEESAFHSVGNLETLILDSNPLACDCRLLWVFRRRWRLNFNRQQPTCATPEFVQGKEFKDFPDVLLPNYFTCRRAHIRDRKAQQVFVDEGHTVQFVCRADGDPPPAILWLSPRKHLVSAKSNGRLTVFPDGTLEVRYAQVQDNGTYLCIAANAGGNDSMPAHLHVRSYSPDWPHQPNKTFAFISNQPGEGEANSTRATVPFPFDIKTLIIATTMGFISFLGVVLFCLVLLFLWSRGKGNTKHNIEIEYVPRKSDAGISSADAPRKFNMKMI
notes: Native protein in a tissue extract; Sp35 knock-out VM served as the control
- binding result: binds
